Source: patent EP3583122A1 (dated 2019)
Positions count from the first letter of the chain named. Numbers in names are those of the source.

Tests used:
[1] = target: T1, EBOV GP on rVSV particles (Ebola virus (EBOV), UniProt Q05320 33-676); experiment: cell-based or functional assay
T1 sequence: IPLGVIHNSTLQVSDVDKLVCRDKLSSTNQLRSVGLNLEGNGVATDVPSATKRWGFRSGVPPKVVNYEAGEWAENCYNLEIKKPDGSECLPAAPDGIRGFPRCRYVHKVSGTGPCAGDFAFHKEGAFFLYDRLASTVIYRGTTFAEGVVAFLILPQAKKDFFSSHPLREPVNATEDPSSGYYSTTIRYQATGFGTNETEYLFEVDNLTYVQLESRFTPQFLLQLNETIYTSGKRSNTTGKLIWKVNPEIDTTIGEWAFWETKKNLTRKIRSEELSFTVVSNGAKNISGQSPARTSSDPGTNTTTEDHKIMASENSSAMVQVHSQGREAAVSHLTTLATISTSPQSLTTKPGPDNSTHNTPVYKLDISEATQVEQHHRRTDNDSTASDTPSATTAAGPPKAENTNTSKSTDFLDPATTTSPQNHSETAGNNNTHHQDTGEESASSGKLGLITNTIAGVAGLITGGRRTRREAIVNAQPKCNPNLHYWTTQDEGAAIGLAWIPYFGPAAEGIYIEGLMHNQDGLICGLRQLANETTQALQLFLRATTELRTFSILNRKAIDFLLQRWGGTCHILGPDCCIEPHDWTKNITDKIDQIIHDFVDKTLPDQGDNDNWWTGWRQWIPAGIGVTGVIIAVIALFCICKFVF

[2] = target: BDBV GP on rVSV particles (Bundibugyo virus (BDBV)); experiment: cell-based or functional assay
[3] = target: T2, TAFV GP on VSV pseudotype particles (Tai Forest virus (TAFV), UniProt Q66810 33-676); experiment: cell-based or functional assay
T2 sequence: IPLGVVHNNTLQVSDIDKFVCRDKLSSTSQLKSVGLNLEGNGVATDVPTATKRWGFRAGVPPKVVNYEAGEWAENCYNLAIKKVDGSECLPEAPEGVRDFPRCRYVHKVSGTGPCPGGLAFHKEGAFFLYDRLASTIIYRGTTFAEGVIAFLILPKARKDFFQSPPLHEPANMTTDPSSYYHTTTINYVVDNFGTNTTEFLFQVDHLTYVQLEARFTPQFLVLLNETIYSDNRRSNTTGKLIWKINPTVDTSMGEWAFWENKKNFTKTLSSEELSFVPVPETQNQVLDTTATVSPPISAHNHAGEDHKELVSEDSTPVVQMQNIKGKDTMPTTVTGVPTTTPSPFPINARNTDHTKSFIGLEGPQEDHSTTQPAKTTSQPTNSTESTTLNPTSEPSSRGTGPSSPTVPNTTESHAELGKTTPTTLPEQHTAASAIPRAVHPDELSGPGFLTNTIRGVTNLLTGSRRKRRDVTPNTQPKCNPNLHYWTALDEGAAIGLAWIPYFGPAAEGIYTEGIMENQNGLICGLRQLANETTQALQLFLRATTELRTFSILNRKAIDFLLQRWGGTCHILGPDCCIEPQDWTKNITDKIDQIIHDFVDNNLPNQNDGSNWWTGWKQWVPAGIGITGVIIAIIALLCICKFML

[4] = target: T3, SUDV GP on rVSV particles (Sudan virus (SUDV), UniProt Q66814 33-676); experiment: cell-based or functional assay
T3 sequence: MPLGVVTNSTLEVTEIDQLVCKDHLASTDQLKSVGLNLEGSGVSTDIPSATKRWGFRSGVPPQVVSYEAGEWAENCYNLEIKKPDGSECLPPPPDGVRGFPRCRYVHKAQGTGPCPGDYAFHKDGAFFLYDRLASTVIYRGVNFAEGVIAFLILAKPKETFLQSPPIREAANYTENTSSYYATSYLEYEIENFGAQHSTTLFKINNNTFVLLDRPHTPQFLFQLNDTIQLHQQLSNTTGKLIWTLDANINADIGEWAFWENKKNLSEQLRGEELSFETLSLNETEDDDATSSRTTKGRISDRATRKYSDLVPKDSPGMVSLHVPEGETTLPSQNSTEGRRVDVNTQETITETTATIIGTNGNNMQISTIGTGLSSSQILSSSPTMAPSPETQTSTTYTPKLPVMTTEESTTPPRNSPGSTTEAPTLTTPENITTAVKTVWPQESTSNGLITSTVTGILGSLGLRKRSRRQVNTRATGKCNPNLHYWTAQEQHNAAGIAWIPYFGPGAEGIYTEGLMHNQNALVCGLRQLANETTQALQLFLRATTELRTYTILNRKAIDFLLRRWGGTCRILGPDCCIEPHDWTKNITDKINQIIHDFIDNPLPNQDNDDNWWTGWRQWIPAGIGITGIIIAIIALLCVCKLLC

[5] = target: T4, RESTV GP on rVSV particles (Reston virus (RESTV), UniProt Q66799 34-677); experiment: cell-based or functional assay
T4 sequence: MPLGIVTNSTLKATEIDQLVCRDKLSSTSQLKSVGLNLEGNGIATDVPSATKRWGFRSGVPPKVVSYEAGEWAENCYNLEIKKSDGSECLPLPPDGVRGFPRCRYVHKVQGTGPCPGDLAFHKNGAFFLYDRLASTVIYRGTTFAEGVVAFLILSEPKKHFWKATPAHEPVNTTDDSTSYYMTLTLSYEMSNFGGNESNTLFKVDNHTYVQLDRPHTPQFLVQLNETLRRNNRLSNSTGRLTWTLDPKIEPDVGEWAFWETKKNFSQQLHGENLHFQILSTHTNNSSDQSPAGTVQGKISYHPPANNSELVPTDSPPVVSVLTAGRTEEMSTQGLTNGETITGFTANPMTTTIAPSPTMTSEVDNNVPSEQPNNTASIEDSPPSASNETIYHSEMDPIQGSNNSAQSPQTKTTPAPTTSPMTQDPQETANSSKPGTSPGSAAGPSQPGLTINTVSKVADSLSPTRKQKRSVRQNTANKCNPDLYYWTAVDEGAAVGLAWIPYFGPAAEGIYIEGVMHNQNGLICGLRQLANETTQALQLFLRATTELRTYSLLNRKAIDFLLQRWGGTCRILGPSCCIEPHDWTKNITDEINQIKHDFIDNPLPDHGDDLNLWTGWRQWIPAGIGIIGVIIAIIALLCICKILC

[6] = target: EBOV GPCL (cleaved soluble EBOV GP) (Ebola virus (EBOV), UniProt Q05320 33-650); experiment: BLI (OctetRed), IgG on anti-human Fc sensors, GPCL in solution, 1:1 fit

B1: PE-87 D110A (antibody, V domains shown)
VH: QVQLVQSGVTLVQPGGSLRVSCAASGFTFSSYAMSWVRQAPGKGLEWVSAISGLGGSTYYADSVKGRFTISRDNSKNTLYLQMNSLRAEDTAVYYCAKDHRVWAAGYHFAYWGQGALVTVSS
VL: DIVLTQSPSTLSASVGDRVTITCRASQSISSWLAWYQQKPGEAPKLLISDASSLESGVPSRFSGSGSGTEFTLTISSLQPDDFATYYCQQYYSSPTFGGGTKVEIK
IC50, half-maximal neutralization of viral infectivity (rVSV-GP) [1]: 2 nM
IC50, half-maximal neutralization of viral infectivity (rVSV-GP) [2]: 0.9 nM
IC50, half-maximal neutralization of viral infectivity (rVSV-GP) [3]: 2.1 nM
IC50, half-maximal neutralization of viral infectivity (rVSV-GP) [4]: 1.5 nM
IC50, half-maximal neutralization of viral infectivity (rVSV-GP) [5]: 0.4 nM

B2: PE-87 Y111A (antibody, V domains shown)
VH: B1 VH with A110D, Y111A
VL: B1 VL
IC50, half-maximal neutralization of viral infectivity (rVSV-GP) [1]: 0.8 nM
IC50, half-maximal neutralization of viral infectivity (rVSV-GP) [2]: 0.4 nM
IC50, half-maximal neutralization of viral infectivity (rVSV-GP) [3]: 1.1 nM
IC50, half-maximal neutralization of viral infectivity (rVSV-GP) [4]: 0.8 nM
IC50, half-maximal neutralization of viral infectivity (rVSV-GP) [5]: 0.1 nM

B3: mAb PE-87 (antibody, V domains shown)
VH: B1 VH with A110D
VL: B1 VL
Kd [6]: < 0.001 nM
